In the DeepSol protein solubility set:

Experiment: soluble on expression in E. coli; label from the status in PepcDB or PDB records
With “MSLFTGENWDPYEWAKVFKKSGAKFVVLVAEHHDGFALWESNYTRWCATKIGPKRDIVRELKEAVEGQGLIFGISYHRAEHWWFFDQGMKIESDVKDPRYLDLYGPAQSASLNPRDPPSLDNVQPNDEFLMDWLLRIVEAVEKYRPWLVYFDWWIANPSFQPYLKAFASYYYNRSYKWGIEPVIIYKQGAFGEGTAIPDLAERGTIKNVYPSTWLADTSIDYKSWGYIKDAEYKLPSVILSHLGDVVSKNGVFLLNIGPKADGTIPEEAKRILLDVGDWLNVNGEAIFGSKPWRVYGEGPSGINEGGFFTERKITLGYQDVRYTVKDYYPRQRHIYAILFGKPKEITLRSFMKNLKLIEEAVIVDVSRLDGKGKLEWSLSDEGLKIKIEEVIRAPLVIRVILDYREGHHHHHH” the “soluble on expression in E. coli” value was “not soluble”.
In the case of “MSLGAMCFYHYWFLGKQLLEKPAEILLENKEINMPFLFSWANEPWTRAWDGSHRNVLMPQSYGTEADWEKHFNYLKPFFEDERYLKHDGKPIFIIYRTANFALCNEWISCWRELSKNTSFKDIHFVSSYTSFENDPRKLDFDAHLYFEPMCTVGHNLGYFNKKIKKINARLKRVINPKVWTTYVENTLQYDYLWEKILKKKINKTQYPGAFVDWDNSARKKSRALVIHGGSPKKFGLYLDKLYKRSIENNCPFLFINAWNEWAEGTYLEPDEKNKYSYLEELKKVIEKYEVEGHHHHHH”, the “soluble on expression in E. coli” value is reported as “not soluble”.
In the case of “MSLGARELHAHLKGGAATVCRCWAVTRRDGTVFGFTDHDRDLTFEGRLFRAETGLTSSALQQTTGLSVDNAETVGALSHVSVTEADLLAGRFDGAEVLAWLVNWADVSERLLQFRGTLGEITHSGGRFRAELRGLTEALNQPQGRVYQRSCQAVLGDRACGFDLSAEEFATERAVETVVGRQSFSFEGLHSFPDRWFEQGRLVVMTGEAAGAMGVIKSDRRRGEVRTVELWEALGPQITVGDRVRLEAGCDRMAETCRLKFNNLRNFRGFPHLSGEDWLSAYPAATGTHDGGSLWEEGHHHHHH”, the “soluble on expression in E. coli” value is reported as “soluble”.
For “MSLGDAADPREMRKTFIVPAIKPFDHYDFSRAKIACNLAWLVAKAFGTENVPEELQEPFYTDQYDQEHIKPPVVNLLLSAELYCRAGSLILKSDAAKPLLGHDAVIQALAQKGLYVTDQEKLVTERDLHKKPIQMSAHLAMIDTLMMAYTVEMVSIEKVIACAQQYSAFFQATDLPYDIEDAVMYWINKVNEHLKDIMEQEQKLKEHHTVEAPGGQKEGHHHHHH”, the “soluble on expression in E. coli” value was “soluble”.
In the case of “MSLGDQYTYYMNEKEFSDFKEKSQGNYMGIGIQVAVKDGKIVVISPIQGGPAEKAGIKTGDIILKVNGEPVSGNELDKAVSMMKGTTKENIKLTLYREGHHHHPPLIRIRAPSTSLRPHSSTTTTTTEIRLLTKPERKLSWLLPPLSNN”, the “soluble on expression in E. coli” value is reported as “soluble”.
With “MSLGDSETIRILVSTDNHVGYNERDPIRGDDSWKSFHEVMCLAKQHDVDMVLLAGDLFHENKPSRKSMYQVMRSIRMNCLGDKPCELQLLSDASENFQGAFNHVNYEDLDINVGIPIFSIHGNHDDPSGEGHLAALDILQVSGLLNYYGRTPESDNIQLKPVLLQKGRTKLALYGMSNVRDERLFRTFRDGKVKFFRPSVQKEDWYNLICVHQNHHAYTETGYLPENFLPEFLDLVIWGHEHECLINPREGHHHHHH” the “soluble on expression in E. coli” value was “soluble”.
With “MSLGDSNSSTPLPDTSYACQANVMTQSNQLRTYQIMVESFVDGDTSIGHGTGYGTSHHNGDLQGVIDSLDYIQDLGMNAIWLTPVFESEAIAGQDHWADRLDATGYFATDYFKIDPKFGDLATAKTLVEEAHKRGLYVFFDGVFGHHKNGLIKPSPSGLLPSGSSNPVDYPASLDFYKEVATYWIKELKIDGWRLDQAYQVPTDAWTQLRKAVDEASQSVTYTNSKGDQVNPLGYMVAEIWKGESEIANEAYGSNSDPALCSAFDFPMRYRIVETLAVNESGVGGRGVDWLDNGYSTHNQYPTHAQPNLMIGNHDLVRFGDLLQRGNLADVNDAEYWLRHKAAFAFQAAYTGPITLYYGDEIGDQVDGFAAKEDNNTCAIQGLCDDHVARSSAKIEGVTATLDANQADLKAYVTSLMTMRDTHPALYQGSRTNLVASNGSYVDLKQSGSDKVLFALNTLESARTVILAQESVGTGELVDLLTNEKIAPSNGQYQLPMSPLQGRFFAVTEGHHHHHH” the “soluble on expression in E. coli” value was “soluble”.
